These results are taken from US20100169988A1 (published 2010).

The assay addresses APP-TAP-AICD (human, UniProt P05067 18-695). Put plainly: streptavidin purification of APP-TAP-AICD from brain homogenate; iTRAQ 116/114, transgenic mouse 75 vs control mouse 72; MALDI-TOF/TOF.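 Also: relative protein abundance in the transgenic versus control pull-down, limited to proteins with high quality scores and above-average enrichment, without full normalization across the whole measurement.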

B1: ATP synthase gamma chain; mitochondrial precursor (enzyme, mouse, UniProt Q91VR2 26-298, looked up)
chain: ATLKDITRRLKSIKNIQKITKSMKMVAAAKYARAERELKPARVYGTGSLALYEKADIKAPEDKKKHLIIGVSSDRGLCGAIHSSVAKQMKNEVAALTAAGKEVMIVGVGEKIKGILYRTHSDQFLVSFKDVGRKPPTFGDASVIALELLNSGYEFDEGSIIFNQFKSVISYKTEEKPIFSLNTIATAETMSIYDDIDADVLQNYQEYNLANLIYYSLKESTTSEQSARMTAMDNASKNASDMIDKLTLTFNRTRQAVITKELIEIISGAAALD
In the case of B1, the iTRAQ ratio amounted to 3.98.

B2: Excitatory amino acid transporter 2 (Sodium-dependent glutamate/aspartate transporter 2) (other, mouse, UniProt P43006 1-572, looked up)
chain: MASTEGANNMPKQVEVRMHDSHLSSDEPKHRNLGMRMCDKLGKNLLLSLTVFGVILGAVCGGLLRLASPIHPDVVMLIAFPGDILMRMLKMLILPLIISSLITGLSGLDAKASGRLGTRAMVYYMSTTIIAAVLGVILVLAIHPGNPKLKKQLGPGKKNDEVSSLDAFLDLIRNLFPENLVQACFQQIQTVTKKVLVAPPSEEANTTKAVISMLNETMNEAPEETKIVIKKGLEFKDGMNVLGLIGFFIAFGIAMGKMGEQAKLMVEFFNILNEIVMKLVIMIMWYSPLGIACLICGKIIAIKDLEVVARQLGMYMITVIVGLIIHGGIFLPLIYFVVTRKNPFSFFAGIFQAWITALGTASSAGTLPVTFRCLEDNLGIDKRVTRFVLPVGATINMDGTALYEAVAAIFIAQMNGVILDGGQIVTVSLTATLASIGAASIPSAGLVTMLLILTAVGLPTEDISLLVAVDWLLDRMRTSVNVVGDSFGAGIVYHLSKSELDTIDSQHRMQEDIEMTKTQSIYDDKNHRESNSNQCVYAAHNSVVIDECKVTLAANGKSADCSVEEEPWKREK
notes: also called EAA2_MOUSE; GLT-1
In the case of B2, the iTRAQ ratio came out at 4.44.

B3: Pyruvate kinase; isozyme M2 (enzyme)
chain: not shown
notes: also called pyruvate kinase isozyme M1/2
Regarding B3, the iTRAQ ratio was determined as 4.71.

B4: Glyceraldehyde-3-phosphate dehydrogenase (GAPDH) (enzyme)
chain: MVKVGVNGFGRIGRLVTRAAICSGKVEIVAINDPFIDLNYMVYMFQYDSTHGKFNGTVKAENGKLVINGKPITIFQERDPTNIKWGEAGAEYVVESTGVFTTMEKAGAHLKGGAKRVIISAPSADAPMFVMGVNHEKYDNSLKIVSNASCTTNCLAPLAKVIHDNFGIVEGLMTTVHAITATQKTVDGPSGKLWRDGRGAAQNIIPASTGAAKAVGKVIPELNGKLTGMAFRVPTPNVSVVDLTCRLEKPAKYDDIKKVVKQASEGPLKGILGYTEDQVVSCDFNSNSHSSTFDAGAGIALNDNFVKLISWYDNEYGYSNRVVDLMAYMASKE
For B4, the iTRAQ ratio was 4.54.

B5: Glutamine synthetase (Glutamate-ammonia ligase) (enzyme, mouse, UniProt P15105 2-373, looked up)
chain: ATSASSHLNKGIKQMYMSLPQGEKVQAMYIWVDGTGEGLRCKTRTLDCEPKCVEELPEWNFDGSSTFQSEGSNSDMYLHPVAMFRDPFRKDPNKLVLCEVFKYNRKPAETNLRHICKRIMDMVSNQHPWFGMEQEYTLMGTDGHPFGWPSNGFPGPQGPYYCGVGADKAYGRDIVEAHYRACLYAGVKITGTNAEVMPAQWEFQIGPCEGIRMGDHLWIARFILHRVCEDFGVIATFDPKPIPGNWNGAGCHTNFSTKAMREENGLKCIEEAIDKLSKRHQYHIRAYDPKGGLDNARRLTGFHETSNINDFSAGVANRGASIRIPRTVGQEKKGYFEDRRPSANCDPYAVTEAIVRTCLLNETGDEPFQYKN
Regarding B5, the iTRAQ ratio amounted to 3.76.

B6: Fructose-bisphosphate aldolase C (Brain-type aldolase) (Aldolase 3) (enzyme, mouse, UniProt P05063 2-363, looked up)
chain: PHSYPALSAEQKKELSDIALRIVTPGKGILAADESVGSMAKRLSQIGVENTEENRRLYRQVLFSADDRVKKCIGGVIFFHETLYQKDDNGVPFVRTIQDKGILVGIKVDKGVVPLAGTDGETTTQGLDGLLERCAQYKKDGADFAKWRCVLKISDRTPSALAILENANVLARYASICQQNGIVPIVEPEILPDGDHDLKRCQYVTEKVLAAVYKALSDHHVYLEGTLLKPNMVTPGHACPIKYSPEEIAMATVTALRRTVPPAVPGVTFLSGGQSEEEASLNLNAINRCPLPRPWALTFSYGRALQASALNAWRGQRDNAGAATEEFIKRAEMNGLAAQGRYEGSGDGGAAAQSLYIANHAY
Turning to B6, the iTRAQ ratio was determined as 3.77.

B7: Creatine kinase; B chain (enzyme)
chain: not shown
On to B7, for which the iTRAQ ratio turned out to be 5.32.

B8: Synaptotagmin-1 (Synaptotagmin I) (SytI) (p65) (other, mouse, UniProt P46096 1-421, looked up)
chain: MVSASRPEALAAPVTTVATLVPHNATEPASPGEGKEDAFSKLKQKFMNELHKIPLPPWALIAIAIVAVLLVVTCCFCVCKKCLFKKKNKKKGKEKGGKNAINMKDVKDLGKTMKDQALKDDDAETGLTDGEEKEEPKEEEKLGKLQYSLDYDFQNNQLLVGIIQAAELPALDMGGTSDPYVKVFLLPDKKKKFETKVHRKTLNPVFNEQFTFKVPYSELGGKTLVMAVYDFDRFSKHDIIGEFKVPMNTVDFGHVTEEWRDLQSAEKEEQEKLGDICFSLRYVPTAGKLTVVILEAKNLKKMDVGGLSDPYVKIHLMQNGKRLKKKKTTIKKNTLNPYYNESFSFEVPFEQIQKVQVVVTVLDYDKIGKNDAIGKVFVGYNSTGAELRHWSDMLANPRRPIAQWHTLQVEEEVDAMLAVKK
notes: also called SYT1_MOUSE
On to B8, for which the iTRAQ ratio amounted to 3.82.

B9: Aspartate aminotransferase; mitochondrial precursor (Transaminase A) (enzyme, mouse, UniProt P05202 30-430, looked up)
chain: SSWWTHVEMGPPDPILGVTEAFKRDTNSKKMNLGVGAYRDDNGKPYVLPSVRKAEAQIAAKNLDKEYLPIGGLAEFCKASAELALGENNEVLKSGRFVTVQTISGTGALRVGASFLQRFFKFSRDVFLPKPSWGNHTPIFRDAGMQLQGYRYYDPKTCGFDFSGALEDISKIPEQSVLLLHACAHNPTGVDPRPEQWKEIASVVKKKNLFAFFDMAYQGFASGDGDKDAWAVRHFIEQGINVCLCQSYAKNMGLYGERVGAFTVVCKDAEEAKRVESQLKILIRPLYSNPPLNGARIAATILTSPDLRKQWLQEVKGMADRIISMRTQLVSNLKKEGSSHNWQHITDQIGMFCFTGLKPEQVERLTKEFSVYMTKDGRISVAGVTSGNVGYLAHAIHQVTK
In the case of B9, the iTRAQ ratio is 3.51.

B10: Malate dehydrogenase; cytoplasmic (enzyme, mouse, UniProt P14152 2-334, looked up)
chain: SEPIRVLVTGAAGQIAYSLLYSIGNGSVFGKDQPIILVLLDITPMMGVLDGVLMELQDCALPLLQDVIATDKEEIAFKDLDVAVLVGSMPRREGMERKDLLKANVKIFKSQGTALEKYAKKSVKVIVVGNPANTNCLTASKSAPSIPKENFSCLTRLDHNRAKSQIALKLGVTADDVKNVIIWGNHSSTQYPDVNHAKVKLQGKEVGVYEALKDDSWLKGEFITTVQQRGAAVIKARKLSSAMSAAKAIADHIRDIWFGTPEGEFVSMGVISDGNSYGVPDDLLYSFPVVIKNKTWKFVEGLPINDFSREKMDLTAKELTEEKETAFEFLSSA
As to B10, the iTRAQ ratio turned out to be 5.96.

B11: L-lactate dehydrogenase B chain (LDH-B) (LDH heart subunit) (enzyme)
chain: not shown
In the case of B11, the iTRAQ ratio is 3.99.

B12: Triosephosphate isomerase (TIM) (Triose-phosphate isomerase) (enzyme, mouse, UniProt P17751 2-249, looked up)
chain: APTRKFFVGGNWKMNGRKKCLGELICTLNAANVPAGTEVVCAPPTAYIDFARQKLDPKIAVAAQNCYKVTNGAFTGEISPGMIKDLGATWVVLGHSERRHVFGESDELIGQKVSHALAEGLGVIACIGEKLDEREAGITEKVVFEQTKVIADNVKDWSKVVLAYEPVWAIGTGKTATPQQAQEVHEKLRGWLKSNVNDGVAQSTRIIYGGSVTGATCKELASQPDVDGFLVGGASLKPEFVDIINAKQ
As to B12, the iTRAQ ratio came out at 4.61.

B13: Aspartate aminotransferase; cytoplasmic (Transaminase A) (enzyme, mouse, UniProt P05201 2-413, looked up)
chain: APPSVFAQVPQAPPVLVFKLTADFRDDPDPRKVNLGVGAYRTDESQPWVLPVVRKVEQKIANDNSLNHEYLPILGLAEFRSCASRLVLGDNSLAIRENRVGGVQSLGGTGALRIGADFLGRWYNGTDNKNTPIYVSSPTWENHNAVFSAAGFKDIRPYCYWDAEKRGLDLQGFLNDLENAPEFSIFVLHACAHNPTGTDPTPEQWKQIAAVMQRRFLFPFFDSAYQGFASGDLEKDAWAIRYFVSEGFELFCAQSFSKNFGLYNERVGNLTVVGKESDSVLRVLSQMEKIVRITWSNPPAQGARIVAATLSDPELFKEWKGNVKTMADRILTMRSELRARLEALKTPGTWSHITEQIGMFSFTGLNPKQVEYLVNEKHIYLLPSGRINMCGLTTKNLDYVATSIHEAVTKIQ
Consider B13, for which the iTRAQ ratio was 4.04.

B14: Phosphate carrier protein; mitochondrial precursor (PTP) (other, mouse, UniProt Q8VEM8 46-357, looked up)
chain: AVEEYSCEFGSMKYYALCGFGGVLSCGLTHTAVVPLDLVKCRMQVDPQKYKGIFNGFSITLKEDGVRGLAKGWAPTLIGYSMQGLCKFGFYEVFKALYSNILGEENTYLWRTSLYLASSASAEFFADIALAPMEAAKVRIQTQPGYANTLREAVPKMYKEEGLNAFYKGVAPLWMRQIPYTMMKFACFERTVEALYKFVVPKPRSECTKAEQLVVTFVAGYIAGVFCAIVSHPADSVVSVLNKEKGSTASQVLQRLGFRGVWKGLFARIIMIGTLTALQWFIYDSVKVYFRLPRPPPPEMPESLKKKLGLTE
B14: the iTRAQ ratio turned out to be 4.61.

B15: Vacuolar ATP synthase catalytic subunit A; ubiquitous isoform (enzyme)
chain: MDFSKLPKIRDEDKESTFGYVHGVSGPVVTACDMAGAAMYELVRVGHSELVGEIIRLEGDMATIQVYEETSGVSVGDPVLRTGKPLSVELGPGIMGAIFDGIQRPLSDISSQTQSIYIPRGVNVSALSRDIKWEFIPSKNLRVGSHITGGDIYGIVNENSLIKHKIMLPPRNRGSVTYIAPPGNYDASDVVLELEFEGVKEKFSMVQVWPVRQVRPVTEKLPANHPLLTGQRVLDALFPCVQGGTTAIPGAFGCGKTVISQSLSKYSNSDVIIYVGCGERGNEMSEVLRDFPELTMEVDGKVESIMKRTALVANTSNMPVAAREASIYTGITLSEYFRDMGYHVSMMADSTSRWAEALREISGRLAEMPADSGYPAYLGARLASFYERAGRVKCLGNPEREGSVSIVGAVSPPGGDFSDPVTSATLGIVQVFWGLDKKLAQRKHFPSVNWLISYSKYMRALDEYYDKHFTEFVPLRTKAKEILQEEEDLAEIVQLVGKASLAETDKITLEVAKLIKDDFLQQNGYTPYDRFCPFYKTVGMLSNMISFYDMARRAVETTAQSDNKITWSIIREHMGEILYKLSSMKFKDPVKDGEAKIKADYAQLLEDMQNAFRSLED
notes: also called VATA1_MOUSE
In the case of B15, the iTRAQ ratio stood at 3.81.

B16: Clathrin light chain A (Lca) (other, mouse, UniProt O08585 1-235, looked up)
chain: MAELDPFGAPAGAPGGPALGNGVAGAGEEDPAAAFLAQQESEIAGIENDEAFAILDGGAPGRATRRAAGGPDAVDGVMNGEYYQESNGPTDSYAAISEVDRLQSEPESIRKWREEQTERLEALDANSRKQEAEWKEKAIKELEEWYARQDEQLQKTKANNRVADEAFYKQPFADLIGYVAAEEAFVNDIDESSPGTEWERVARLCDFNPKSSKQAKDVSRMRSVLISLKQAPLVH
Turning to B16, the iTRAQ ratio came to 3.98.

B17: Alpha enolase (2-phospho-D-glycerate hydro-lyase) (Non-neural enolase) (NNE) (enzyme, mouse, UniProt P17182 2-434, looked up)
chain: SILRIHAREIFDSRGNPTVEVDLYTAKGLFRAAVPSGASTGIYEALELRDNDKTRFMGKGVSQAVEHINKTIAPALVSKKVNVVEQEKIDKLMIEMDGTENKSKFGANAILGVSLAVCKAGAVEKGVPLYRHIADLAGNPEVILPVPAFNVINGGSHAGNKLAMQEFMILPVGASSFREAMRIGAEVYHNLKNVIKEKYGKDATNVGDEGGFAPNILENKEALELLKTAIAKAGYTDQVVIGMDVAASEFYRSGKYDLDFKSPDDPSRYITPDQLADLYKSFVQNYPVVSIEDPFDQDDWGAWQKFTASAGIQVVGDDLTVTNPKRIAKAASEKSCNCLLLKVNQIGSVTESLQACKLAQSNGWGVMVSHRSGETEDTFIADLVVGLCTGQIKTGAPCRSERLAKYNQILRIEEELGSKAKFAGRSFRNPLAK
Take B17: the iTRAQ ratio came to 3.9.

B18: Ubiquitin carboxyl-terminal hydrolase isozyme L1 (UCH-L1) (enzyme, mouse, UniProt Q9R0P9 1-220, looked up)
chain: MQLKPMEINPEMLNKVLAKLGVAGQWRFADVLGLEEETLGSVPSPACALLLLFPLTAQHENFRKKQIEELKGQEVSPKVYFMKQTIGNSCGTIGLIHAVANNQDKLEFEDGSVLKQFLSETEKLSPEDRAKCFEKNEAIQAAHDSVAQEGQCRVDDKVNFHFILFNNVDGHLYELDGRMPFPVNHGASSEDSLLQDAAKVCREFTEREQGEVRFSAVALC
notes: also called UCHL1_MOUSE
Consider B18, for which the iTRAQ ratio came to 4.68.
